The values below come from patent US20070160605A1 (RINAT NEUROSCIENCE, published 2007).

This test has as its target T1, human NGF (human, UniProt P01138 122-241, limits assumed).
T1 construct: also called hNGF; human nerve growth factor
Kind of test: binding affinity, method not stated.

Where “and” joins values, the source holds several entries; their conditions need not be identical. Equal entries are not always repeated.

T1 sequence (P01138 122-241 limits assumed): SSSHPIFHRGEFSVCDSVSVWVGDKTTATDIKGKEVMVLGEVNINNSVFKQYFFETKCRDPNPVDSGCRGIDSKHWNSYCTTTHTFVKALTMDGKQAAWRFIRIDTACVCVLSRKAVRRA

B1: humanized anti-NGF antibody E3 (antibody, V domains shown)
VH: QVQLQESGPGLVKPSETLSLTCTVSGFSLIGYDLNWIRQPPGKGLEWIGIIWGDGTTDYNSAVKSRVTISKDTSKNQFSLKLSSVTAADTAVYYCARGGYWYATSYYFDYWGQGTLVTVS
VL: DIQMTQSPSSLSASVGDRVTITCRASQSISNNLNWYQQKPGKAPKLLIYYTSRFHSGVPSRFSGSGSGTDFTFTISSLQPEDIATYYCQQEHTLPYTFGQGTKLEIK
By Kd is commonly meant the concentration at which binding is half-saturated. A high value points to a looser complex. As to B1, the equilibrium dissociation constant (Kd) was ~70 pM and ~100 pM.
